First the molecules themselves.
B1: UBP3-associated protein BRE5 (Saccharomyces cerevisiae), P53741 (parent)
chain: MGVTVQDICFAFLQNYYERMRTDPSKLAYFYASTAELTHTNYQSKSTNEKDDVLPTVKVTGRENINKFFSRNDAKVRSLKLKLDTIDFQYTGHLHKSILIMATGEMFWTGTPVYKFCQTFILLPSSNGSTFDITNDIIRFISNSFKPYVLTDASLSQSNEENSVSAVEEDKIRHESGVEKEKEKEKSPEISKPKAKKETVKDTTAPTESSTQEKPIVDHSQPRAIPVTKESKIHTETVPSSTKGNHKQDEVSTEELGNVTKLNEKSHKAEKKAAPIKTKEGSVEAINAVNNSSLPNGKEVSDEKPVPGGVKEAETEIKPIEPQVSDAKESGNNASTPSSSPEPVANPPKMTWASKLMNENSDRISKNNTTVEYIRPETLPKKPTERKFEMGNRRDNASANSKNKKKPVFSTVNKDGFYPIYIRGTNGLREEKLRSALEKEFGKVMRITAADNFAVVDFETQKSQIDALEKKKKSIDGIEVCLERKTVKKPTSNNPPGIFTNGTRSHRKQPLKRKD
partner: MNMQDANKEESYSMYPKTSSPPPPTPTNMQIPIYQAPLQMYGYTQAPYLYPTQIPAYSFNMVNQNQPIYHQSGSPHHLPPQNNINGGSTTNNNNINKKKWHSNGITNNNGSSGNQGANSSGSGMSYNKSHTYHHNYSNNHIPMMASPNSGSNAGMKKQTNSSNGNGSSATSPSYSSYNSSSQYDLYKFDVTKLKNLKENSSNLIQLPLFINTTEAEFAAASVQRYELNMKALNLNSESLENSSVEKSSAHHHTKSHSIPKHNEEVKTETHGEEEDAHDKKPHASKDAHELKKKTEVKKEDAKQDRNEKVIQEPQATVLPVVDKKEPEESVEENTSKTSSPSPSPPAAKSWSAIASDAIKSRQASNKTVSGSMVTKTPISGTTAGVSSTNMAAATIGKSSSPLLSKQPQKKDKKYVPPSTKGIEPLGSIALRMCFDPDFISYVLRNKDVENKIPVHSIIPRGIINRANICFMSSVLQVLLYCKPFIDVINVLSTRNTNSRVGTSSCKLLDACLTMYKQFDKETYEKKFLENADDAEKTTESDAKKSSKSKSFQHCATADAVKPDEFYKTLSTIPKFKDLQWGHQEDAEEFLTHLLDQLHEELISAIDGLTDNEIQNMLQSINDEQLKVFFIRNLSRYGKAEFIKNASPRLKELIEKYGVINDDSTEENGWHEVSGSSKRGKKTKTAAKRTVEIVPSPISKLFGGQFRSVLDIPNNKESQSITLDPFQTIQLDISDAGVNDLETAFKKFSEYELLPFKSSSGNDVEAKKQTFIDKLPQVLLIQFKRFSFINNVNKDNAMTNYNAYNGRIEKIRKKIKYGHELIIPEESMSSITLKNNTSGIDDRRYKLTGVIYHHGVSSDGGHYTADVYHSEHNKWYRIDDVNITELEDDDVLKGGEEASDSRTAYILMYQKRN
B2: Ubiquitin carboxyl-terminal hydrolase 3 (Saccharomyces cerevisiae), Q01477 (parent)
chain: B1 partner
partner: B1 chain

One experiment covers variants of B1. The following applies: with ubp3_yeast UBP3, Q01477.
Consider MGVTVQDICFAFLQNYYERMRTDPSKLAYFYASTAELTHTNYQSKSTNEKDDVLPTVKVTGRENINKFFSRNDAKVRSLKLALDTIDFQYTGHLHKSILIMATGEMFWTGTPVYKFCQTFILLPSSNGSTFDITNDIIRFISNSFKPYVLTDASLSQSNEENSVSAVEEDKIRHESGVEKEKEKEKSPEISKPKAKKETVKDTTAPTESSTQEKPIVDHSQPRAIPVTKESKIHTETVPSSTKGNHKQDEVSTEELGNVTKLNEKSHKAEKKAAPIKTKEGSVEAINAVNNSSLPNGKEVSDEKPVPGGVKEAETEIKPIEPQVSDAKESGNNASTPSSSPEPVANPPKMTWASKLMNENSDRISKNNTTVEYIRPETLPKKPTERKFEMGNRRDNASANSKNKKKPVFSTVNKDGFYPIYIRGTNGLREEKLRSALEKEFGKVMRITAADNFAVVDFETQKSQIDALEKKKKSIDGIEVCLERKTVKKPTSNNPPGIFTNGTRSHRKQPLKRKD [K82A], for which the “effect of a mutation on the interaction” value is recorded as “with no effect”. The same measure, in the same setting: the result for MGVTVQDICFAFLQNYYERMRTDPSKLAYFYASTAELTHTNYQSKSTNEKDDVLPTVKVTGRENINKFFSRNDAKVRSLKLKLDTIDFQYTGHLHKSILIMATGAMFWTGTPVYKFCQTFILLPSSNGSTFDITNDIIRFISNSFKPYVLTDASLSQSNEENSVSAVEEDKIRHESGVEKEKEKEKSPEISKPKAKKETVKDTTAPTESSTQEKPIVDHSQPRAIPVTKESKIHTETVPSSTKGNHKQDEVSTEELGNVTKLNEKSHKAEKKAAPIKTKEGSVEAINAVNNSSLPNGKEVSDEKPVPGGVKEAETEIKPIEPQVSDAKESGNNASTPSSSPEPVANPPKMTWASKLMNENSDRISKNNTTVEYIRPETLPKKPTERKFEMGNRRDNASANSKNKKKPVFSTVNKDGFYPIYIRGTNGLREEKLRSALEKEFGKVMRITAADNFAVVDFETQKSQIDALEKKKKSIDGIEVCLERKTVKKPTSNNPPGIFTNGTRSHRKQPLKRKD [E105A] reads “with no effect”. Same read-out and setting: the result for MGVTVQDICFAFLQNYAERMRTDPSKLAYFYASTAELTHTNYQSKSTNEKDDVLPTVKVTGRENINKFFSRNDAKVRSLKLKLDTIDFQYTGHLHKSILIMATGEMFWTGTPVYKFCQTFILLPSSNGSTFDITNDIIRFISNSFKPYVLTDASLSQSNEENSVSAVEEDKIRHESGVEKEKEKEKSPEISKPKAKKETVKDTTAPTESSTQEKPIVDHSQPRAIPVTKESKIHTETVPSSTKGNHKQDEVSTEELGNVTKLNEKSHKAEKKAAPIKTKEGSVEAINAVNNSSLPNGKEVSDEKPVPGGVKEAETEIKPIEPQVSDAKESGNNASTPSSSPEPVANPPKMTWASKLMNENSDRISKNNTTVEYIRPETLPKKPTERKFEMGNRRDNASANSKNKKKPVFSTVNKDGFYPIYIRGTNGLREEKLRSALEKEFGKVMRITAADNFAVVDFETQKSQIDALEKKKKSIDGIEVCLERKTVKKPTSNNPPGIFTNGTRSHRKQPLKRKD [Y17A] reads “with no effect”; that for MGVTVQDICFAFLQNYYERMRTDPSKLAYFYASTAELTHTNYQSKSTNEKDDVLPTVKVTGRENINKFFSRNDAKVRSLALKLDTIDFQYTGHLHKSILIMATGEMFWTGTPVYKFCQTFILLPSSNGSTFDITNDIIRFISNSFKPYVLTDASLSQSNEENSVSAVEEDKIRHESGVEKEKEKEKSPEISKPKAKKETVKDTTAPTESSTQEKPIVDHSQPRAIPVTKESKIHTETVPSSTKGNHKQDEVSTEELGNVTKLNEKSHKAEKKAAPIKTKEGSVEAINAVNNSSLPNGKEVSDEKPVPGGVKEAETEIKPIEPQVSDAKESGNNASTPSSSPEPVANPPKMTWASKLMNENSDRISKNNTTVEYIRPETLPKKPTERKFEMGNRRDNASANSKNKKKPVFSTVNKDGFYPIYIRGTNGLREEKLRSALEKEFGKVMRITAADNFAVVDFETQKSQIDALEKKKKSIDGIEVCLERKTVKKPTSNNPPGIFTNGTRSHRKQPLKRKD [K80A], “with no effect”.

The variants in another experiment derive from B1. The following applies: with ubp3_yeast UBP3, Q01477. The source holds these as a separate data set.
In the case of MGVTVQDICFAFLQNYAERMRTDPSKLAYFYASTAELTHTNYQSKSTNEKDDVLPTVKVTGRENINKFFSRNDAKVRSLKLALDTIDFQYTGHLHKSILIMATGEMFWTGTPVYKFCQTFILLPSSNGSTFDITNDIIRFISNSFKPYVLTDASLSQSNEENSVSAVEEDKIRHESGVEKEKEKEKSPEISKPKAKKETVKDTTAPTESSTQEKPIVDHSQPRAIPVTKESKIHTETVPSSTKGNHKQDEVSTEELGNVTKLNEKSHKAEKKAAPIKTKEGSVEAINAVNNSSLPNGKEVSDEKPVPGGVKEAETEIKPIEPQVSDAKESGNNASTPSSSPEPVANPPKMTWASKLMNENSDRISKNNTTVEYIRPETLPKKPTERKFEMGNRRDNASANSKNKKKPVFSTVNKDGFYPIYIRGTNGLREEKLRSALEKEFGKVMRITAADNFAVVDFETQKSQIDALEKKKKSIDGIEVCLERKTVKKPTSNNPPGIFTNGTRSHRKQPLKRKD [Y17A;K82A], the “effect of a mutation on the interaction” value is reported as “decreasing interaction strength”.

Variants of B2 are the subject of another experiment. The following applies: with bre5_yeast BRE5, P53741.
R224A: the “effect of a mutation on the interaction” value is recorded as “with no effect”. On to L208A, for which the “effect of a mutation on the interaction” value is listed as “with no effect”. In the case of E214A, the “effect of a mutation on the interaction” value is “with no effect”. Same read-out and setting: to L208A;F209A;I210A;N211A belongs “decreasing interaction strength”; to L208A;F209A;I210A;N211A;F217A, “disrupting interaction strength”; to E216A, “with no effect”. Regarding L208A;F209A, the “effect of a mutation on the interaction” value is reported as “decreasing interaction strength”. The same measure, in the same setting: the result for T212A reads “with no effect”; that for I210A;F217A, “decreasing interaction strength”. Same read-out and setting: the result for N211A;F217A reads “decreasing interaction strength”. Same read-out and setting: the result for I210A reads “decreasing interaction strength”. As to N211A, the “effect of a mutation on the interaction” value is given as “decreasing interaction strength”.

Regarding F217A, the “effect of a mutation on the interaction” value was “with no effect”.

Regarding F209A, the “effect of a mutation on the interaction” value is on record as “with no effect”.

Values taken from IntAct's records for PubMed 17632125.
